Test system: peptide library, one residue held at a place counted from the Y acceptor
Assay: relative phosphorylation of the sub-library (ratio to the mean residue at this position); higher = residue favoured
Procedure, shortened: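 Every value reflects phosphorylation relative to the mean randomized residue. The sum of the 18 randomized residues, or 16 in the Ser/Thr-free library, served to normalize intensities at each position, which were then multiplied by that number. Intensities came from phosphorimaging with ImageQuant of biotinylated Tyr-centred peptides captured on streptavidin membranes after 90 min with purified recombinant kinases and 50 μM ATP plus γ-32P-ATP.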

Chain of MUSK, construct: aa529-end, human (O15146 529-869, looked up): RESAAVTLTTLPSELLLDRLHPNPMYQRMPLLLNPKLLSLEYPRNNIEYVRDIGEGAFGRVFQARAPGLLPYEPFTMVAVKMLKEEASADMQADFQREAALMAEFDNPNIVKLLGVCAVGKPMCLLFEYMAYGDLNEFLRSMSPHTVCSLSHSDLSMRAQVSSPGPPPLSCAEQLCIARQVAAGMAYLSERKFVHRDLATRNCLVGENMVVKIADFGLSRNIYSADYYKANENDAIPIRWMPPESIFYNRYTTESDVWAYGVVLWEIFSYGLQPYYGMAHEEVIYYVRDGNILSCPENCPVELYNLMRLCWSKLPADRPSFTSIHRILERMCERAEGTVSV
Chain of NEK10, construct: aa266-895, human (Q6ZWH5 266-895, looked up): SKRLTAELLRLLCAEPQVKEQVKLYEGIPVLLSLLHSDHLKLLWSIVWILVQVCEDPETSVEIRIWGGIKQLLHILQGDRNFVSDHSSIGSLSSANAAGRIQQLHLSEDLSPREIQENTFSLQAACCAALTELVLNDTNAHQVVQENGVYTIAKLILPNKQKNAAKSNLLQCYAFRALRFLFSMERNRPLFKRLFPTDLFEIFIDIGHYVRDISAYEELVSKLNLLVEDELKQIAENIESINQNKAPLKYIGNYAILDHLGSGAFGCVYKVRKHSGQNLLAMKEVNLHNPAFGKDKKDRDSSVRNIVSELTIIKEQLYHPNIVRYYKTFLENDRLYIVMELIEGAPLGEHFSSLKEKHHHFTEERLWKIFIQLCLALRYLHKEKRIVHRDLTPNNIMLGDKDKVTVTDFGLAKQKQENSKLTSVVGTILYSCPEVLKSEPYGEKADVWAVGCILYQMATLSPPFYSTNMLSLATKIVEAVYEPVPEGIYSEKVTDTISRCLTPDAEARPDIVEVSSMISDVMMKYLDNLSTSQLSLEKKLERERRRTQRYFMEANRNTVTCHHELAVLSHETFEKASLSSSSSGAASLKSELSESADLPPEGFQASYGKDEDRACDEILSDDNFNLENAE

MUSK, construct: aa529-end, human (from UniProt O15146)
relative phosphorylation
Conditions | at +1 | at +2 | at +3 | at +4 | at +5 | at -1 | at -2 | at -3 | at -4 | at -5
A fixed | 1.21 | 0.711 | 0.689 | 0.799 | 0.969 | 0.559 | 0.817 | 0.963 | 1.25 | 1.09
D fixed | 0.341 | 0.179 | 0.233 | 0.665 | 0.832 | 0.932 | 0.856 | 1.09 | 0.763 | 0.981
E fixed | 0.619 | 0.251 | 0.156 | 0.481 | 0.784 | 2.14 | 1.44 | 1 | 0.919 | 0.766
F fixed | 1.9 | 1.59 | 1.49 | 1.06 | 1.01 | 1.33 | 0.962 | 1.16 | 1.38 | 1.33
G fixed | 0.835 | 0.386 | 0.886 | 0.94 | 1.08 | 0.401 | 1.06 | 0.981 | 1.14 | 1.06
H fixed | 1.68 | 0.852 | 0.868 | 1.2 | 1.07 | 1.51 | 1.14 | 1.04 | 0.977 | 0.891
I fixed | 1.31 | 1.54 | 1.59 | 0.808 | 0.781 | 1.5 | 1.02 | 0.87 | 1.02 | 0.946
K fixed | 0.317 | 1.58 | 0.99 | 1.53 | 1.15 | 0.248 | 0.779 | 0.855 | 0.822 | 0.916
L fixed | 0.926 | 1.12 | 1.09 | 0.907 | 1.02 | 1.62 | 1.09 | 1.04 | 1.13 | 1.17
M fixed | 1.58 | 0.918 | 1.24 | 1.1 | 0.964 | 0.939 | 0.914 | 1.15 | 0.996 | 1.13
N fixed | 0.41 | 0.774 | 0.62 | 0.848 | 0.935 | 2.14 | 1.35 | 1.09 | 0.877 | 1.04
P fixed | 0.151 | 0.654 | 1.2 | 0.974 | 1.04 | 0.476 | 0.672 | 0.865 | 1.09 | 1.01
Q fixed | 0.768 | 0.847 | 0.48 | 1.11 | 0.786 | 0.782 | 1.04 | 0.881 | 1.06 | 1.11
R fixed | 0.541 | 2.19 | 2.06 | 1.57 | 1.66 | 0.255 | 0.976 | 0.866 | 0.972 | 0.892
S fixed | 0.58 | 0.819 | 0.591 | 1.04 | 0.858 | 0.437 | 1.05 | 1.09 | 0.721 | 0.804
T fixed | 0.563 | 0.862 | 0.843 | 0.771 | 0.987 | 0.465 | 1.03 | 0.936 | 0.627 | 0.663
V fixed | 1.55 | 1.69 | 1.48 | 0.86 | 0.836 | 1.19 | 0.921 | 0.874 | 0.881 | 0.962
W fixed | 2.72 | 1.05 | 1.49 | 1.36 | 1.24 | 1.06 | 0.892 | 1.25 | 1.39 | 1.25
pThr fixed | 1.15 | 0.475 | 0.215 | 0.619 | 0.435 | 1.32 | 0.741 | 0.718 | 0.587 | 0.773
pTyr fixed | 11.8 | 1.11 | 0.592 | 0.73 | 0.832 | 5.58 | 1.07 | 1.32 | 0.963 | 1.02

NEK10, construct: aa266-895, human (from UniProt Q6ZWH5)
relative phosphorylation
Conditions | at +1 | at +2 | at +3 | at +4 | at +5 | at -1 | at -2 | at -3 | at -4 | at -5
A fixed | 0.35 | 0.54 | 0.755 | 0.959 | 0.812 | 0.916 | 0.855 | 1.05 | 1.13 | 1.08
D fixed | 0.229 | 0.823 | 0.78 | 0.87 | 0.766 | 0.564 | 0.825 | 0.727 | 0.992 | 0.965
E fixed | 0.173 | 0.582 | 0.836 | 0.71 | 0.776 | 0.798 | 0.772 | 0.745 | 0.897 | 0.981
F fixed | 2.39 | 0.883 | 1.07 | 1.05 | 1.09 | 1.19 | 1.25 | 0.991 | 0.956 | 0.969
G fixed | 0.353 | 1.31 | 1.12 | 1.1 | 1.08 | 1.01 | 1.12 | 0.981 | 1.16 | 1.17
H fixed | 3.09 | 1.41 | 1.18 | 1.06 | 1.05 | 1.28 | 1.12 | 1.16 | 1.14 | 1.15
I fixed | 0.888 | 0.45 | 0.571 | 0.794 | 0.692 | 0.801 | 0.637 | 0.801 | 0.805 | 0.869
K fixed | 0.373 | 1.05 | 1.13 | 1.21 | 1.41 | 0.876 | 1.13 | 1.21 | 1.27 | 1.2
L fixed | 1.8 | 0.577 | 0.754 | 0.944 | 0.887 | 1.21 | 1.06 | 1.09 | 0.852 | 0.826
M fixed | 0.954 | 0.783 | 1.12 | 1 | 0.918 | 1.13 | 0.989 | 0.982 | 1.01 | 0.867
N fixed | 0.565 | 1.55 | 1.24 | 1.02 | 1.07 | 0.796 | 1.4 | 1.02 | 0.84 | 0.987
P fixed | 0.387 | 1.63 | 1.29 | 1.13 | 1.05 | 0.715 | 1.02 | 0.946 | 1.14 | 1.07
Q fixed | 0.461 | 1.65 | 1.28 | 0.915 | 1.06 | 0.916 | 0.998 | 1.07 | 0.974 | 0.931
R fixed | 0.451 | 1.25 | 1.34 | 1.29 | 1.49 | 1.05 | 1.19 | 1.55 | 1.19 | 1.31
V fixed | 0.455 | 0.473 | 0.584 | 0.771 | 0.703 | 0.708 | 0.607 | 0.695 | 0.673 | 0.735
W fixed | 3.08 | 1.04 | 0.934 | 1.17 | 1.15 | 2.04 | 1.03 | 0.981 | 0.971 | 0.901
pThr fixed | 0.242 | 0.585 | 0.599 | 0.764 | 0.714 | 0.515 | 0.453 | 0.608 | 0.64 | 0.774
pTyr fixed | 0.248 | 0.44 | 0.693 | 0.723 | 0.72 | 1.03 | 0.783 | 0.764 | 0.734 | 0.812

Reference: the supplement of paper PMC11136658
